From publication PMC8327961, “Nse5/6 inhibits the Smc5/6 ATPase and modulates DNA substrate binding” (The EMBO Journal, 2021)
Each block holds one molecule with its values, some of them ahead of it.

What was measured:
[1] = target: T1, Smc5/6 core hexamer (Saccharomyces cerevisiae, UniProt Q08204+Q12749); assay: pyruvate kinase/lactate dehydrogenase coupled ATPase assay; assay type: biochemical; conditions: Walker B mutation in both Smc5 and Smc6, residue numbers not told; ATPase buffer pH 7.5, 2 mM MgCl2; 25 °C
T1 construct: full-length Smc5, Smc6, Nse1, Nse2, Nse3, Nse4 co-expressed in E. coli Rosetta (DE3); C-terminal 3C-Twin-Strep-tag on Smc6; with Non-structural maintenance of chromosomes element 1; E3 SUMO-protein ligase MMS21; Non-structural maintenance of chromosome element 3; Non-structural maintenance of chromosome element 4
T1 sequence (Q08204 whole entry, one chain of several): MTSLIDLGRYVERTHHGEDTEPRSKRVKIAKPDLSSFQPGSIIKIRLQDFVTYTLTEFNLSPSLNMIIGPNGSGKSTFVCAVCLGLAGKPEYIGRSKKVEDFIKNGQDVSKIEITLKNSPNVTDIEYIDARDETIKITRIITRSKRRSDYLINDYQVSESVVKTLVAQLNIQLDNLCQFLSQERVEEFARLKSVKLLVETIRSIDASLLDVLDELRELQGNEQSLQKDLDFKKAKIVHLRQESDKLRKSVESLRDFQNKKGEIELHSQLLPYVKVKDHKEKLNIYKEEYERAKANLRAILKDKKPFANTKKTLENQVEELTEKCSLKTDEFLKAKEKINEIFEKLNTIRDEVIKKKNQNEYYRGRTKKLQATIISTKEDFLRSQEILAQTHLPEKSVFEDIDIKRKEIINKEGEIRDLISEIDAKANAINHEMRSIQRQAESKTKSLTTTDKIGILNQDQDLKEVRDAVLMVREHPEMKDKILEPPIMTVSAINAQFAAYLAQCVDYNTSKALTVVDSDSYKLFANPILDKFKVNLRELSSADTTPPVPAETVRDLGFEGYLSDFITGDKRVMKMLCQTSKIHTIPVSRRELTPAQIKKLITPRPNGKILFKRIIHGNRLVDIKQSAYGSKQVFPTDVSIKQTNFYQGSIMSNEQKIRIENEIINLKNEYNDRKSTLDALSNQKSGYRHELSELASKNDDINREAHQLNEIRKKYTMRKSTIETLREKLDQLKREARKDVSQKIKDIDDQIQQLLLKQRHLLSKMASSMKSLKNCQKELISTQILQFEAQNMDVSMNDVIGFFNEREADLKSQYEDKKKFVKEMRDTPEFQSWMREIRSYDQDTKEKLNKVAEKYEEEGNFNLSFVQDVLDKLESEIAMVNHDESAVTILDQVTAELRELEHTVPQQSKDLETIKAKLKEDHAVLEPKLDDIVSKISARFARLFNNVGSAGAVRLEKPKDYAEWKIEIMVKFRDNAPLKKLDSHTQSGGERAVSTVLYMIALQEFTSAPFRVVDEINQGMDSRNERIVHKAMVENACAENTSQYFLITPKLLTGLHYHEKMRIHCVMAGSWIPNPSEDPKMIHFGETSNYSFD
T1 sequence (Q07913 whole entry partner, one chain of several): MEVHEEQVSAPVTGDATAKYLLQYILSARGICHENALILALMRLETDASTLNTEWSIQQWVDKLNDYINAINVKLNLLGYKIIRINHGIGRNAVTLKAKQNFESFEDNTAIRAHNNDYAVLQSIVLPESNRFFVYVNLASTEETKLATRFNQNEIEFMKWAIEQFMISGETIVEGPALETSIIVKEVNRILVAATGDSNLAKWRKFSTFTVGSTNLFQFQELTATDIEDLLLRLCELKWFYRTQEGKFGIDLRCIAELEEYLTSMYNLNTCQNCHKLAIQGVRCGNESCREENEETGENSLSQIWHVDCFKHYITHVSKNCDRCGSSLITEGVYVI
T1 sequence (P38632 whole entry partner, one chain of several): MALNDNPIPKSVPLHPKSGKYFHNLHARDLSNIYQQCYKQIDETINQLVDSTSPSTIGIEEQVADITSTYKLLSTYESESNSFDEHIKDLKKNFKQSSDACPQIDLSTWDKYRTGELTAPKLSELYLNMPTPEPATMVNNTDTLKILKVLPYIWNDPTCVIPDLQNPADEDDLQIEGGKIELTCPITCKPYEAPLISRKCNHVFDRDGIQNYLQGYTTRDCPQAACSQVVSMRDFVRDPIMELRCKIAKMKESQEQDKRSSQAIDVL
T1 sequence (Q05541 whole entry partner, one chain of several): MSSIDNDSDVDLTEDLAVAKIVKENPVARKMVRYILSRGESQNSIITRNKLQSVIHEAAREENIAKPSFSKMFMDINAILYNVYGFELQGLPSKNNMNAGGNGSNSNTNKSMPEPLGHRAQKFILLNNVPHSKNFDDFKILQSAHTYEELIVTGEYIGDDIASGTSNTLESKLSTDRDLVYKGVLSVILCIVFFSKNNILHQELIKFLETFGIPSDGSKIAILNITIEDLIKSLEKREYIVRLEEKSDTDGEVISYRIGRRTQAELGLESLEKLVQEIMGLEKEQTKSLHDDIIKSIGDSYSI
T1 sequence (P43124 whole entry partner, one chain of several): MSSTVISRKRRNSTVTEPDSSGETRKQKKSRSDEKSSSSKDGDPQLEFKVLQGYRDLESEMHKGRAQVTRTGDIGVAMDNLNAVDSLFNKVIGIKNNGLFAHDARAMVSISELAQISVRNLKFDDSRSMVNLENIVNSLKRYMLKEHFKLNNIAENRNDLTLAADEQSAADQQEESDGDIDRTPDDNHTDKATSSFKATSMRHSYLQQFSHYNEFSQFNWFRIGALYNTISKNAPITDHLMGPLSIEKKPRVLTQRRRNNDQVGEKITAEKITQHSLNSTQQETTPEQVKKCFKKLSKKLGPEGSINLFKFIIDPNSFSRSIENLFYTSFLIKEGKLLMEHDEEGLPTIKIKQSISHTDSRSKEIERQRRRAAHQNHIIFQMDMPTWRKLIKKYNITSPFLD

[2] = target: T2, Smc6-3C-Twin-Strep (S. cerevisiae, UniProt Q12749 1-1114); assay: cross-linking; BMOE (1 mM, 45 s) on hexamers with reporter cysteines, 0.5 µM in ATPase buffer; without or with Nse5/6 (0.625 µM), 2 mM ATP, plasmid DNA or 40 bp DNA; SDS-PAGE, Coomassie; conditions: both partners purified
T2 construct: Smc6, S. cerevisiae; stood in the assays as a subunit of the hexamer or octamer; also called Smc6-Twin-Strep; Smc6-3C-TS; source: E. coli (DE3) Rosetta, co-expressed with the other subunits of the hexamer, purified as part of the complex; not shown: Twin-Strep (after a 3C site), C-terminal, kept
T2 sequence (looked up): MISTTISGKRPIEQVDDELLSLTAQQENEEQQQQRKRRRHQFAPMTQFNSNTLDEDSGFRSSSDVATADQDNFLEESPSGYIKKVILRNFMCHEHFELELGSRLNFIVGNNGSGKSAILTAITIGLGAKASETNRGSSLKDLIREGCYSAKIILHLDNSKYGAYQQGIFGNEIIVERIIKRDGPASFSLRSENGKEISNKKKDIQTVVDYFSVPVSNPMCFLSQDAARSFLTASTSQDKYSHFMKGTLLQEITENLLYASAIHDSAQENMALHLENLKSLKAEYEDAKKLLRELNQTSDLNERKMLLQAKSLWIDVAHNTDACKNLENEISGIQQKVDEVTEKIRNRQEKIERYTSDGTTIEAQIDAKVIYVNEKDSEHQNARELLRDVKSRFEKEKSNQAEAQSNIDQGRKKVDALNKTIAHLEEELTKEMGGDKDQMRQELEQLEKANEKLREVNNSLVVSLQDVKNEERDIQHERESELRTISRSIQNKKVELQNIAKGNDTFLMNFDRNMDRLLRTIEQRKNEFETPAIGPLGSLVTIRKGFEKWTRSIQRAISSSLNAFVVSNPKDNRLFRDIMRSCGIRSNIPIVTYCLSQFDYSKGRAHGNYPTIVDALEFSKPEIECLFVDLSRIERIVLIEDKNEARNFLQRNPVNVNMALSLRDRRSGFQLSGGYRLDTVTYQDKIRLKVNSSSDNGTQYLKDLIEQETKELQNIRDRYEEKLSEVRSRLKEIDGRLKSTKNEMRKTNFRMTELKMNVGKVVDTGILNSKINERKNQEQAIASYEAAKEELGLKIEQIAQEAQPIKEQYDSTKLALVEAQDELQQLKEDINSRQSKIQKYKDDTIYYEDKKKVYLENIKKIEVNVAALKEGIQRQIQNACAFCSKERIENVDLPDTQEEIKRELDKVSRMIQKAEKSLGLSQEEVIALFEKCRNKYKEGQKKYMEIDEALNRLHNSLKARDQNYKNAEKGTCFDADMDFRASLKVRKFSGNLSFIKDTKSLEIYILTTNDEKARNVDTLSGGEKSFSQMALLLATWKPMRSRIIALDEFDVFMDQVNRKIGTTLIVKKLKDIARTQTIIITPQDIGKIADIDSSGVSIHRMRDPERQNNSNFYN

[3] = target: Smc5/6 octamer (hexamer plus Nse5/6) (Saccharomyces cerevisiae, UniProt Q08204;Q12749;Q07913;P38632;Q05541;P43124;Q03718;P40026 …); assay: fluorescence anisotropy; ATPase buffer: 10 mM Hepes-KOH pH 7.5, 150 mM K-OAc, 2 mM MgCl2, 20% glycerol; anisotropy at 25 C; plasmid pulldown bound at room temperature, high-salt buffer; conditions: protein: recombinant; tags: C-terminal 3C-Twin-Strep on Smc6; reconstitution with Nse5 C-terminal AviTag-3C-Twin-Strep; copies: 1;1;1;1;1;1;1;1; blunt
[4] = target: T3, Nse5/6 dimer (Saccharomyces cerevisiae, UniProt Q03718;P40026 1-556;1-464); assay: as above; conditions: protein: recombinant; copies: 1;1; blunt
T3 sequence 1: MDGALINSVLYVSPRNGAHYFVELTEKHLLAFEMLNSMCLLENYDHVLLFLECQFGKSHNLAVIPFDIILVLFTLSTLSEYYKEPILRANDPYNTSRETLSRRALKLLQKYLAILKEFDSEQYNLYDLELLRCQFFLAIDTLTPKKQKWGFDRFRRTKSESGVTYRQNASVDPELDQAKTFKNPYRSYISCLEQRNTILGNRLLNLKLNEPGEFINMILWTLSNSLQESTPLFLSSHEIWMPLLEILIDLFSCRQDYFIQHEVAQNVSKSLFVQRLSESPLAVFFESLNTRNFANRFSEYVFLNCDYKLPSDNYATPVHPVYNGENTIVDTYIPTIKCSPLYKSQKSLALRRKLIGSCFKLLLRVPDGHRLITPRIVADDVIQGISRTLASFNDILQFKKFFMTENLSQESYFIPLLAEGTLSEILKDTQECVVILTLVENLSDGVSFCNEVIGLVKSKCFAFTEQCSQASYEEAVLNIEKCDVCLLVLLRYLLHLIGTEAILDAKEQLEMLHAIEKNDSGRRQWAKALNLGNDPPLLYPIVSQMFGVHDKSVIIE
T3 sequence 2: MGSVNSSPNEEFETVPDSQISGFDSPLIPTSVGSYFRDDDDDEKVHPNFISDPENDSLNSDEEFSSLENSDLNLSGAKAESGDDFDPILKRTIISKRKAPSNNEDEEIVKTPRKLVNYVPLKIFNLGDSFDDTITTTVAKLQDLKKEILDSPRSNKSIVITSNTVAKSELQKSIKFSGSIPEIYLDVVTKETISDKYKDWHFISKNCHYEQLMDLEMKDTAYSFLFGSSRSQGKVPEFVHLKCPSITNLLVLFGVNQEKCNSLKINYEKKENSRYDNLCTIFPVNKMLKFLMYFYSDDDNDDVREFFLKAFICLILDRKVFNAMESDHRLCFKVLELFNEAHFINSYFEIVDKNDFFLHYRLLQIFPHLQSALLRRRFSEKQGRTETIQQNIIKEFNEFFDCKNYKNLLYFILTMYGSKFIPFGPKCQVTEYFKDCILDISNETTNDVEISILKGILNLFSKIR

[5] = target: Smc5/6 hexamer (Smc5, Smc6, Nse1, Nse2, Nse3, Nse4) (Saccharomyces cerevisiae, UniProt Q08204;Q12749;Q07913;P38632;Q05541;P43124 1-1093;1-1114;1-336;1-267;1-303;1-402); assay: as above; conditions: protein: recombinant; tags: C-terminal 3C-Twin-Strep on Smc6; copies: 1;1;1;1;1;1; blunt

Molecule: Nc1ncnc2c1ncn2[C@@H]1O[C@H](COP(=O)(O)OP(=O)(O)OP(=O)(O)O)[C@@H](O)[C@H]1O [ATP]
no noticeable ATP hydrolysis [1]: did not display noticeable ATP hydrolysis activity

binding result [2]: binds
B1: Smc5(N975C) (natural protein, S. cerevisiae, UniProt Q08204 1-1093, looked up)
chain: MTSLIDLGRYVERTHHGEDTEPRSKRVKIAKPDLSSFQPGSIIKIRLQDFVTYTLTEFNLSPSLNMIIGPNGSGKSTFVCAVCLGLAGKPEYIGRSKKVEDFIKNGQDVSKIEITLKNSPNVTDIEYIDARDETIKITRIITRSKRRSDYLINDYQVSESVVKTLVAQLNIQLDNLCQFLSQERVEEFARLKSVKLLVETIRSIDASLLDVLDELRELQGNEQSLQKDLDFKKAKIVHLRQESDKLRKSVESLRDFQNKKGEIELHSQLLPYVKVKDHKEKLNIYKEEYERAKANLRAILKDKKPFANTKKTLENQVEELTEKCSLKTDEFLKAKEKINEIFEKLNTIRDEVIKKKNQNEYYRGRTKKLQATIISTKEDFLRSQEILAQTHLPEKSVFEDIDIKRKEIINKEGEIRDLISEIDAKANAINHEMRSIQRQAESKTKSLTTTDKIGILNQDQDLKEVRDAVLMVREHPEMKDKILEPPIMTVSAINAQFAAYLAQCVDYNTSKALTVVDSDSYKLFANPILDKFKVNLRELSSADTTPPVPAETVRDLGFEGYLSDFITGDKRVMKMLCQTSKIHTIPVSRRELTPAQIKKLITPRPNGKILFKRIIHGNRLVDIKQSAYGSKQVFPTDVSIKQTNFYQGSIMSNEQKIRIENEIINLKNEYNDRKSTLDALSNQKSGYRHELSELASKNDDINREAHQLNEIRKKYTMRKSTIETLREKLDQLKREARKDVSQKIKDIDDQIQQLLLKQRHLLSKMASSMKSLKNCQKELISTQILQFEAQNMDVSMNDVIGFFNEREADLKSQYEDKKKFVKEMRDTPEFQSWMREIRSYDQDTKEKLNKVAEKYEEEGNFNLSFVQDVLDKLESEIAMVNHDESAVTILDQVTAELRELEHTVPQQSKDLETIKAKLKEDHAVLEPKLDDIVSKISARFARLFNNVGSAGAVRLEKPKDYAEWKIEIMVKFRDCAPLKKLDSHTQSGGERAVSTVLYMIALQEFTSAPFRVVDEINQGMDSRNERIVHKAMVENACAENTSQYFLITPKLLTGLHYHEKMRIHCVMAGSWIPNPSEDPKMIHFGETSNYSFD
notes: Smc5, S. cerevisiae; pairs with the natural cysteines C92 and C147 of Smc6; also called E-Cys, Smc5; source: E. coli (DE3) Rosetta, purified as part of the hexamer

B2: 40bpDNA (STI699/STI700) (dsDNA)
DNA 1: TTAGTTGTTCGTAGTGCTCGTCTGGCTCTGGATTACCCGC
DNA 2: GCGGGTAATCCAGAGCCAGACGAGCACTACGAACAACTAA
Kd [3]: ~100 nM | binding result [4]: no binding | Kd [5]: ~150 nM
